For assay [1], the target named is IL-10 receptor of HEK-BLUE IL-10 cells (the cells express all the components of the IL-10 signaling pathway). The assay can be described thus: cell-based or functional assay.
For assay [2], the target named is human TNFα (human) (UniProt P01375). Description: cell-based or functional assay.

Drawing on US20230203158A1, this text covers EC50 (pM), HEK-BLUE IL-10 signaling assay (SEAP) and IC50 (nM, replicate 2), inhibition of TNFα signaling in HEK-BLUE TNFα cells for 2 substances.

human TNFα (human), sequence (P01375 77-233 limits assumed): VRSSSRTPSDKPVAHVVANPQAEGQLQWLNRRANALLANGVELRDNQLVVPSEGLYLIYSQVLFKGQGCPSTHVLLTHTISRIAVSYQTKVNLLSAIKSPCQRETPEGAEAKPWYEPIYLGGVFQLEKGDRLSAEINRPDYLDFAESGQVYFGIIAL

For the substance “recombinant human IL-10 (BioLegend #573204) (from UniProt P22301 19-178) (ligand)”, the EC50 (pM), HEK-BLUE IL-10 signaling assay (SEAP) in assay [1] came out at 21 pM.
For the substance Etanercept (PRO078) (Fc fusion), the IC50 (nM, replicate 2), inhibition of TNFα signaling in HEK-BLUE TNFα cells in assay [2] amounted to 0.07 nM.
